# According to US20230250135A1 (Janssen / Centocor, published 2023):
# B1: CT149 (antibody, V domains shown)
# VH: QVQLVQSGAEVKKPGASVKVSCKTSGYSFSTYGVSWVRQAPGQGPEWVGWISAYTGITDYAQKFQGRVTLTTDATTATAFLDLRSLRPDDTATYFCARDKVQGRVEVGSGGRHDYWGQGTLVIVSS
# VL: EVVLTQSPGTLALPPGERATLSCRASHRVGSTYIAWYQQKSGQAPRRLIYGASNRATDIPDRFSGSGSGTDFTLTIRRLEPEDSAVYYCQQFSVSPWTFGQGTRVEIK
# B2: SD15013 (VHH)
# VHH: EVQLVESGGGLVQAGDSLRISCAASGRTLSIYSMGWFRQAPGKEREFVATIGWNSGRTFYPDSLKGRFTISRDNARNTLYLQMNNLRPEDTAVYYCAAAKGPLRLSSQADYWGQGTQVTVSS
# Key:
# UFV170051 = UFV170051 (influenza A virus A/Hong Kong/1/68 …); assay: Binding-AlphaLISA, Expi293F supernatant, reference UFV170051
# UFV161715 = UFV161715 (influenza A virus A/Hong Kong/1/68 …); assay: Binding-AlphaLISA, Expi293F supernatant, normalized to UFV161333
# UFV171004 = UFV171004 (influenza A virus A/Hong Kong/1/68 …); assay: ELISA on purified polypeptide
# UFV161721 = UFV161721 (influenza A virus A/Hong Kong/1/68 …); assay: Binding-AlphaLISA, Expi293F supernatant, normalized to UFV161333
# UFV161333 = UFV161333 (influenza A virus A/Hong Kong/1/68 …)
Binder,binding result (UFV170051),binding relative to reference UFV161333 (UFV161715),EC50 (UFV171004),binding relative to reference UFV161333 (UFV161721),fold increase in binding relative to reference UFV161686 (UFV161333)
B1,binds,~90%,< 0.01 nM,–,–
B2,–,~60%,–,~60%,10 fold
